{"source": "patent US20030108998", "proteins": {"B1": {"name": "ADMP-1 (aggrecan degrading metallo protease 1), 67 kDa active form purified from conditioned media of IL-1-stimulated bovine nasal cartilage (protein)", "chain": "FASLSRFVETLVVADDKMAAFHGAGLKRYLLTVMAAAAKAFKHPSIRNPVSLVVTRLVVLGPGEEGPQVGPSAAQTLRSFCAWQRGLNTPDDADPGHFDTAILFTRQDLCGVSTCDTLGMADVGTVCDPARSCAIVEDDGLQSAFTAAHELGHVFSMLHDNSKQCTGLNGPESTSRHVMAPVMAHVDPEEPWSPCSARFITDFLDNGFGHCLLDKPEAPLHLPVTFPGKDYDADRQCQLTFGPDSRHCPQLPPPCAALWCSGHLNGHAMCQTKHSPWADGTPCGPAQACMGGRCLHVDQLQAFNVPQAGGWGPWGSWGDCSRSCGGGVQFSSRDCTRPVPRNGGKYCEGRRTRFRSCNTQDCPTGSALTFREEQCAAYNHRTDLFKNFPGPMDWVPRYTGVAPRDQCKLTCQTRALGYYYVLDPRVADGTPCSPDSSSVCVQGRCIHAGCDRVIGSKKKFDKCMVCGGDGSSCSKQSGSFKKFRYGYNNVVTIPAGATHILVRQQGSPSVRSLYLALKLPDGSYALNGEYTLIPSPTDVVLPGAVSLRYSGATAASETLSGHGPLAEPLTLQVLVAGNPQNARLRYSFFVPRPRPVPSTPRPTPQDWLRRKSQILEILRRRSWAGRK"}}, "molecular_target": "purified bovine aggrecan monomers isolated from bovine nasal cartilage, P13608", "sequence (P13608 17-2364)": "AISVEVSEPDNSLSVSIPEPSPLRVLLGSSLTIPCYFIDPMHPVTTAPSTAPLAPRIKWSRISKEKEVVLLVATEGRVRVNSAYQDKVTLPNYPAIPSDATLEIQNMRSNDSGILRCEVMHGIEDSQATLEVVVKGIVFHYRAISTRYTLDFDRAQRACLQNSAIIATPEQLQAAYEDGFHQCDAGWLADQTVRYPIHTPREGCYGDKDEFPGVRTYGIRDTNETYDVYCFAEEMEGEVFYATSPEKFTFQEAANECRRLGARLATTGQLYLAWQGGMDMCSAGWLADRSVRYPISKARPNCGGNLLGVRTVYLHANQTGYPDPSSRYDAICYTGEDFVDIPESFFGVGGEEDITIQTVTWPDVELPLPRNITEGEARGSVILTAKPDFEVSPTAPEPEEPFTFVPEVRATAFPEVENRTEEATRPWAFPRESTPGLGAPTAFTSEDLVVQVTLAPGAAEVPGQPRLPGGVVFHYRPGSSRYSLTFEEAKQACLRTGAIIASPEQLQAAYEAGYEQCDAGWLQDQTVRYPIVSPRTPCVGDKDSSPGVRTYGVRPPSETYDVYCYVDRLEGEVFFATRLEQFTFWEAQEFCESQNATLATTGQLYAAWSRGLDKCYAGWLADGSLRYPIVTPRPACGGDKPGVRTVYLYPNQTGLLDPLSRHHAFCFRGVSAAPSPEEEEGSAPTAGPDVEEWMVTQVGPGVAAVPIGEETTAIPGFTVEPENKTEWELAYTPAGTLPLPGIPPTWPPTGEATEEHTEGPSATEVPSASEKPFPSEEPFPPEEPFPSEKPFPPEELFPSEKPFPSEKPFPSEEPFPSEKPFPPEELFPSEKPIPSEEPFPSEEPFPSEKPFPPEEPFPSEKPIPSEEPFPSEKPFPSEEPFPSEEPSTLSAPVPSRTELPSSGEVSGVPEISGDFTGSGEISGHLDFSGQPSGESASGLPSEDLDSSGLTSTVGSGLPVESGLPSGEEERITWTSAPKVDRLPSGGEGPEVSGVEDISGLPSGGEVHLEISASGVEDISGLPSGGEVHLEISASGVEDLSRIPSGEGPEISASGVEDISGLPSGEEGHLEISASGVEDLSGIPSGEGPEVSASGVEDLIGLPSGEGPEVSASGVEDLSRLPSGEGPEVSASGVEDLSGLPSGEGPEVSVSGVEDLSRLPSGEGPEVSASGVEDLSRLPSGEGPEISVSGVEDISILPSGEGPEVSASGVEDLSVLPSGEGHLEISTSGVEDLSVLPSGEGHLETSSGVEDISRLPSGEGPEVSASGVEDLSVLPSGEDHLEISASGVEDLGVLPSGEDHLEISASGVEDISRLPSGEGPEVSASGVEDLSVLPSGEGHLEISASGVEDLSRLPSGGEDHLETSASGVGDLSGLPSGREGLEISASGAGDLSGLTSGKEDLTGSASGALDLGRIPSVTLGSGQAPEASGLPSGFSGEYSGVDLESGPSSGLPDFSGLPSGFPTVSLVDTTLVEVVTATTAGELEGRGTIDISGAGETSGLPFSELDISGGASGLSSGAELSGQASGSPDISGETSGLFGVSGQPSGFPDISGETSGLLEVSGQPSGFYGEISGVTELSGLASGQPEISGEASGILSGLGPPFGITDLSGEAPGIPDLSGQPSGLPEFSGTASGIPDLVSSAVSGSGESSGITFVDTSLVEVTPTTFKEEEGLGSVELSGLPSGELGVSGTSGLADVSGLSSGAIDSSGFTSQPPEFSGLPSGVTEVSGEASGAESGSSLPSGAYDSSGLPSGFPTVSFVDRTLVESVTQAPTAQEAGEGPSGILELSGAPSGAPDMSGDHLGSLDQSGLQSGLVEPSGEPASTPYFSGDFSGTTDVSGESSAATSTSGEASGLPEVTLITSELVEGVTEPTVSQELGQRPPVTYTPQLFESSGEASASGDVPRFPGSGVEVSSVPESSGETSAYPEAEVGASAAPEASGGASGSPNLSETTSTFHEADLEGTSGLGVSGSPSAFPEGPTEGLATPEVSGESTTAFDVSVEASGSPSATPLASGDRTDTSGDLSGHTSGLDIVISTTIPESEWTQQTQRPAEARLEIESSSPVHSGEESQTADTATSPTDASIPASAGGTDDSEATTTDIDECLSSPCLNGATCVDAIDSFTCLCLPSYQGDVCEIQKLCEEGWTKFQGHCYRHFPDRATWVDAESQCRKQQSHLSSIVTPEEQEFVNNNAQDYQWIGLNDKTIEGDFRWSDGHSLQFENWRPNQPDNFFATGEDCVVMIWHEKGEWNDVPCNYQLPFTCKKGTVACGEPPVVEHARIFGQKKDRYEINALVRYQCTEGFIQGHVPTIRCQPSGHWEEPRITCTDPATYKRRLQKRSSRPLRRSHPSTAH"}
{"protein": "B1", "values": [{"measurement": "ADMP activity (incubation with aggrecan substrate, products monitored with the BC-3 antibody)", "value": "The region of the gel containing the 67 kDa ADMP-1 protein exhibited activity while that of the control portion of the gel did not"}, {"measurement": "cleavage of aggrecan at Glu373-Ala374, detected as BC-3-reactive fragments (Western blot)", "value": "Incubation of the GuHCl-eluted ADMP-1 with isolated bovine aggrecan produced a pattern of BC-3-reactive fragments similar to that produced upon cleavage of cartilage aggrecan by endogenous aggrecanase"}]}
